Biological target: T1, β1 integrins (UniProt P05556 21-798)
T1 construct: Endogenous protein of the epithelial membrane extract; also called beta 1 integrins
Assay: gel overlay with HeLa membrane extract

T1 sequence (P05556 21-798): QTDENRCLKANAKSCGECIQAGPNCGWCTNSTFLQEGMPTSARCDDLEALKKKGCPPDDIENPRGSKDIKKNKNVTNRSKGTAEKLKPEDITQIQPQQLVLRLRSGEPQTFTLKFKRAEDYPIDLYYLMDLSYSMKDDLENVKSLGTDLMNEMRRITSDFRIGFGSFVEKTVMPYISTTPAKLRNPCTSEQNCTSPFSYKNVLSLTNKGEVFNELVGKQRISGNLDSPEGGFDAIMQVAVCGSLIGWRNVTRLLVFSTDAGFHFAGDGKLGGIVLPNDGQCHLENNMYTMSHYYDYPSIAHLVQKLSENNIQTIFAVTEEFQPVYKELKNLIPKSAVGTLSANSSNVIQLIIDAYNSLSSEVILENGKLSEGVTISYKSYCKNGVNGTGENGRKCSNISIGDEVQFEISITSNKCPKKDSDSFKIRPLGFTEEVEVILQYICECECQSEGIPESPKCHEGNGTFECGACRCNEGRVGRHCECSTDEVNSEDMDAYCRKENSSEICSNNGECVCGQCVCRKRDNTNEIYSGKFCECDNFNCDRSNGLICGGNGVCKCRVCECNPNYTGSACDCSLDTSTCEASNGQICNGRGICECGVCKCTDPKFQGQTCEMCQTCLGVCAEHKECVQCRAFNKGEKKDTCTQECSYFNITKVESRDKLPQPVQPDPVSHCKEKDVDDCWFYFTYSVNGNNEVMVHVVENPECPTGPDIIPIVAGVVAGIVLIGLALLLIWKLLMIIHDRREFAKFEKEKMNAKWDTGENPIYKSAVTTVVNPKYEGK

B1: His-T7Int fusion protein (other)
chain: ITEIKADKTTAVANGQDAITYTVKVMKGDKPVSNQEVTFTTTLGKLSNSTEKTDTNGYAKVTLTSTTPGKSLVSARVSDVAVDVKAPEVEFFTTLTIDDGNIEIVGTGVKGKLPTVWLQYGQVNLKASGGNGKYTWRSANPAIASVDASSGQVTLKEKGTTTISVISSDNQTATYTIATPNSLIVPNMSKRVTYNDAVNTCKNFGGKLPSSQNELENVFKAWGAANKYEYYKSSQTIISWVQQTAQDAKSGVASTYDLVKQNPLNNIKASESNAYATCVK
notes: domain: 280 C-terminal residues of intimin; Purified on an agarose-nickel column; also called His-T7Intimin; His-T7Int peptide
binding result: no binding
